From paper PMC7948501, “Structure of transmembrane prolyl 4-hydroxylase reveals unique organization of EF and dioxygenase domains” (The Journal of Biological Chemistry, 2020)

Molecular target: the molecule itself
Experiment: SEC-SAXS; 7.4 mg/ml on Superdex 200 Increase 5/150, RT; 10 mM Tris HCl pH 7.8, 0.1 M NaCl, 0.1 M glycine, 1% glycerol, with and without 2 mM CaCl2; Bayesian molecular weight estimate

B1: soluble human transmembrane prolyl 4-hydroxylase (P4H-TM), residues 88 to 502 with an N-terminal His-tag (enzyme, UniProt Q9NXG6-1 88-502, looked up)
chain: DESSDPGPQHRAQGPGPEPTLGPLTRLEGIKVGHERKVQLVTDRDHFIRTLSLKPLLFEIPGFLTDEECRLIIHLAQMKGLQRSQILPTEEYEEAMSTMQVSQLDLFRLLDQNRDGHLQLREVLAQTRLGNGWWMTPESIQEMYAAIKADPDGDGVLSLQEFSNMDLRDFHKYMRSHKAESSELVRNSHHTWLYQGEGAHHIMRAIRQRVLRLTRLSPEIVELSEPLQVVRYGEGGHYHAHVDSGPVYPETICSHTKLVANESVPFETSCRYMTVLFYLNNVTGGGETVFPVADNRTYDEMSLIQDDVDLRDTRRHCDKGNLRVKPQQGTAVFWYNYLPDGQGWVGDVDDYSLHGGCLVTRGTKWIANNWINVDPSRARQALFQQEMARLAREGGTDSQPEWALDRAYRDARVEL
modifications: N-linked glycans at Asn368 and Asn382
notes: human transmembrane prolyl 4-hydroxylase (P4H-TM), isoform 1 (502 residues), residues 88-502; lacks the short cytoplasmic region and the transmembrane helix; then six histidines and residues 88-502; Calculated mass 48.3 kDa; also called soluble part of human P4H-TM; isoform 1; not shown: His6, N-terminal, kept
  stoichiometry N: 2
